This note sets out measurements from paper PMC6614842 (Nucleic Acids Research, 2019).

Data set [1] has as its target Mature full-length TFAM (human mitochondrial transcription factor A, residues 43-246) (human) (UniProt Q00059). Briefly: SEC-MALLS.
For data set [2] the target is unchanged. Kind of data set: AUC.
Data set [3] has the same target. Briefly: ITC.
Data set [4] has the same target. Kind of data set: SEC-MALLS. The source holds these as a separate data set.
The target is the same in data set [5]. Kind of data set: AUC. The source holds these as a separate data set.
Data set [6] deals with T1, TFAM WT (mature) (Homo sapiens, UniProt Q00059 43-246).
T1 sequence: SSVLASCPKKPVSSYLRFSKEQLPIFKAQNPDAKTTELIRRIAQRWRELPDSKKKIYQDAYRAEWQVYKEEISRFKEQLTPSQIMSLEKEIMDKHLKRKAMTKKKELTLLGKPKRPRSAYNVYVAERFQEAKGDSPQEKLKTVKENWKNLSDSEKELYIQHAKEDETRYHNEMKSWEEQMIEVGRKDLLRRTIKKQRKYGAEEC
Briefly: EMSA.

In data set [7] the target is T2, TFAM-C49A, A488 at C-terminal Cys246 (Homo sapiens, UniProt Q00059 43-246, C49A).
T2 sequence: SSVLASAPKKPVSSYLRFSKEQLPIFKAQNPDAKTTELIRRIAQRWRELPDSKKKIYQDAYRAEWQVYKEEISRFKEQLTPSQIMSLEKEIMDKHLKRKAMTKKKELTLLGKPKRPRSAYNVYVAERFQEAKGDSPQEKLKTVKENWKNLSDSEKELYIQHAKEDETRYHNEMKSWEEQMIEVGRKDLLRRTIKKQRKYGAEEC
Briefly: FRET.

The target of data set [8] is T1, TFAM WT (mature). Briefly: X-ray crystallography.
Data set [9] concerns the target T2, TFAM-C49A, A488 at C-terminal Cys246. Briefly: FRET. This is another data set of the same source.
Data set [10] deals with the molecule itself. Kind of data set: native gel or EMSA.
Data set [11] has as its target T2, TFAM-C49A, A488 at C-terminal Cys246. Briefly: FRET. The source holds these as a separate data set.
The target is the same in data set [12]. Kind of data set: FRET. The source holds these as a separate data set.

Read-outs that look alike come from different tables or passages of the source.

“Mature full-length TFAM (human mitochondrial transcription factor A, residues 43-246) (from UniProt Q00059 43-246) (natural protein)”: the stoichiometry N in [1], in data set [2], in data set [3], in data set [4] and in [5] was 2 each time.

B1: Site-X 22 (dsDNA)
DNA 1: TAACAAAAAATTTCCACCAAAC
DNA 2: TTTGGTGGAAATTTTTTGTTAG
Turning to B1, in [6], the affinity, expressed as Kd, was 13.6 ± 2.89 nM.

B2: Site-X3* 28 (dsDNA)
DNA 1: TATCATAACAAAAAATTTCCACCAAACA
DNA 2: TGTTTGGTGGAAATTTTTTGTTATGATA
As to B2, in [7], the binding result was “binds”.

B3: Site-YBr 22 (dsDNA)
DNA 1: TAACAATTGAATGTCTGCACAG
DNA 2: CTGTGCAGACATTCAATTGTTA
modifications: brominated at thymine positions (positions not given)
For B3, the binding result in data set [8] was “binds”.

B4: Site-X5* 28 (dsDNA)
DNA 1: TATCATAACAAAAAATTTCCACCAAACA
DNA 2: TGTTTGGTGGAAATTTTTTGTTATGATA
Turning to B4, the binding result in [9] is recorded as “binds”.

B5: TFAM C-terminal tail deletion mutant (TFAM-CTΔ26) (domain or fragment, human, UniProt Q00059 43-220, looked up)
chain: SSVLASCPKKPVSSYLRFSKEQLPIFKAQNPDAKTTELIRRIAQRWRELPDSKKKIYQDAYRAEWQVYKEEISRFKEQLTPSQIMSLEKEIMDKHLKRKAMTKKKELTLLGKPKRPRSAYNVYVAERFQEAKGDSPQEKLKTVKENWKNLSDSEKELYIQHAKEDETRYHNEMKSWEE
For B5, in data set [10], the binding result is on record as “binds”.

B6: Site-Y3* 28 (dsDNA)
DNA 1: TAGAGGCTGTGCAGACATTCAATTGTTA
DNA 2: TAACAATTGAATGTCTGCACAGCCTCTA
As for B6, the binding result in [11] is reported as “binds”.

B7: Site-Y5* 28 (dsDNA)
DNA 1: TAGAGGCTGTGCAGACATTCAATTGTTA
DNA 2: TAACAATTGAATGTCTGCACAGCCTCTA
In the case of B7, in data set [12], the binding result is “binds”.
